From US20240226118A1 (US Dept. of Health and Human Services, published 2024)

Target: T1, ATP1A1 genetically fused to yellow fluorescent protein (YFP) tag (human, UniProt P05023 1-1023)
T1 construct: Stood in lysates of RSV-infected H1299 ATP1A1-YFP cells and was pulled down with YFP-specific antibodies; The other subunits of the Na+,K+-ATPase complex may have been present; also called ATP1A1-YFP; ATPase Na+/K+ transporting subunit alpha 1; not shown: yellow fluorescent protein (YFP) tag
Assay: co-immunoprecipitation

B1: RSV attachment (G) glycoprotein (other)
chain: MSKNKDQRTAKTLERTWDTLNHLLFISSCLYKLNLKSVAQITLSILAMIISTSLIIAAIIFIASANHKVTPTTAIIQDATSQIKNTTPTYLTQNPQLGISPSNPSEITSQITTILASTTPGVKSTLQSTTVKTKNTTTTQTQPSKPTTKQRQNKPPSKPNNDFHFEVFNFVPCSICSNNPTCWAICKRIPNKKPGKKTTTKPTKKPTLKTTKKDPKPQTTKSKEVPTTKPTEEPTINTTKTNIITTLLTSNTTGNPELTSQMETFHSTSSEGNPSPSQVSTTSEYPSQPSSPPNTPRQ
notes: Viral protein in lysates of RSV-infected cells; also called RSV G
binding result: no binding
